# Results: US20060153853A1
# pKd: −log10 of the molar value.
# Legend:
# [1] = biological target: IGF-II (insulin-like growth factor II) (UniProt P01344); test: method not stated in the legend (presumably BIAcore)
# [2] = biological target: IGF-I (insulin-like growth factor I) (UniProt P05019); test: SPR (BIAcore), IGF-I amine-coupled to CM5 chip, IGFBP-2 as analyte, Langmuir 1:1 fit
# [3] = biological target: IGF-I (insulin-like growth factor I) (UniProt P05019); test: SPR (BIAcore), IGF-I amine-coupled to CM5 chip; ratio against hIGFBP-2
# [4] = biological target: IGF-II (insulin-like growth factor II) (UniProt P01344); test: SPR (BIAcore), IGF-II amine-coupled to CM5 chip; ratio against hIGFBP-2
# [5] = biological target: IGF-II (insulin-like growth factor II) (UniProt P01344); test: SPR (BIAcore), IGF-II amine-coupled to CM5 chip, IGFBP-2 as analyte, Langmuir 1:1 fit
# [6] = biological target: IGF-II (insulin-like growth factor II) (UniProt P01344); test: SPR (BIAcore) on immobilised IGF-II; text summing up Table 3
# [7] = biological target: IGF-I (insulin-like growth factor I) (UniProt P05019); test: method not stated in the legend (presumably BIAcore)
# [8] = biological target: IGF-I (insulin-like growth factor I) (UniProt P05019); test: SPR (BIAcore) on immobilised IGF-I; text summing up Table 2
# Chain of IGF-II (insulin-like growth factor II) (P01344 25-91 limits assumed): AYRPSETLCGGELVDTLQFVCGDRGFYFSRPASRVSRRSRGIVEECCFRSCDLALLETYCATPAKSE
# Chain of IGF-I (insulin-like growth factor I) (P05019 49-118 limits assumed): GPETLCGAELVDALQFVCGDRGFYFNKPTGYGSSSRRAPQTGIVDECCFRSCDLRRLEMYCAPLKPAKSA
"fold lower affinity (reference not named, presumably native IGFBP-2) [1] [fold]",pKd [2],koff [2] [s⁻¹],kon [2] [M⁻¹ s⁻¹],Rel. KD (KD of hIGFBP-2/KD of hIGFBP-2 mutant) [3],Rel. KD (KD of hIGFBP-2/KD of hIGFBP-2 mutant) [4],pKd [5],koff [5] [s⁻¹],kon [5] [M⁻¹ s⁻¹],fold decrease in affinity against native hIGFBP-2 [6] [fold],"fold lower affinity (reference not named, presumably native IGFBP-2) [7] [fold]",fold decrease in affinity against native hIGFBP-2 [8] [fold],Substance
2,–,–,–,–,–,–,–,–,–,–,–,Des (114-170) K180A K181A hIGFBP-2 (from UniProt P18065 36-113; P18065 207-325)
–,8.44,0.000425,117000,0.26,0.51,8.94,0.00013,114000,2,2,5,Des(114-170)His hIGFBP-2 (from UniProt P18065 36-113; P18065 207-325)
